Data published in publication PMC5300155, “Biochemical and biophysical investigations of the interaction between human glucokinase and pro-apoptotic BAD” (PLoS ONE, 2017).
Primed or numbered codes have the meaning given here. No end group written: not given here. FITC′ = fluorescein isothiocyanate label

B1: FITC-labeled 21-residue peptide containing the BH3 domain of BAD (peptide)
peptide: NLWAAQRYGRELRRMSDK(FITC′)FVD
notes: BH3 domain of BAD, human; also called f-BH3; fluorescent BH3 peptide; source: synthetic peptide (Peptide2.0, >95%)

Assays:
GST = test: AUC; sedimentation velocity; single proteins or 1:1 molar mixtures incubated on ice 30 min; BAD buffer pH 8.5; 20°C
[1] = biological target: T1, recombinant human Bcl-xL, Δ45–84, Δ210–233 variant (human, UniProt Q07817-1 1-209, Δ45–84); test: fluorescence polarisation; 15 nM FITC peptide, Bcl-xL varied 0–2.25 μM; BAD buffer mixed with phosphate assay buffer pH 7.4; room temperature; conditions: both partners purified
T1 construct: Bcl-xL, human; loop 45-84 deleted and C-terminal residues 210-233 lacking; also called soluble, recombinant Bcl-xL
T1 sequence (Q07817 other isoform, or with tags, fused parts or gaps Δ45–84 | Δ45–84 | mutant): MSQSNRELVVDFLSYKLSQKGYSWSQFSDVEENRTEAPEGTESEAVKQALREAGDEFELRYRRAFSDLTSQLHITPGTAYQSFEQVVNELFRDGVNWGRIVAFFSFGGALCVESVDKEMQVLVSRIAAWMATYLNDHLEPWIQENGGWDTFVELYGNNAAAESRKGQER

Molecule	stoichiometry N (GST)	Kd [1] [nM]
GST (natural protein)	2	
B1		180
